Reference: patent US20140087995A1 (published 2014)
Numbered stars: 1 amine (or outer) side, 2 acyl side, 3 side chain; on linkers, the order of the positions; unused ones are H or OH. Bridge positions count the residues as written; N and C are the ends. Side chains are listed from the residue outwards. Ends that are not written are not given here. * marks the point of attachment. C20 diacid = O=C(O)CCCCCCCCCCCCCCCCCCC(=O)*; γGlu = O=C(O)[C@H](CCC(=O)[*:2])N[*:1]; AEEA = NCCOCCOCC(=O)O

T1: human calcitonin receptor (human, UniProt P30988 25-474)
T1 sequence (looked up): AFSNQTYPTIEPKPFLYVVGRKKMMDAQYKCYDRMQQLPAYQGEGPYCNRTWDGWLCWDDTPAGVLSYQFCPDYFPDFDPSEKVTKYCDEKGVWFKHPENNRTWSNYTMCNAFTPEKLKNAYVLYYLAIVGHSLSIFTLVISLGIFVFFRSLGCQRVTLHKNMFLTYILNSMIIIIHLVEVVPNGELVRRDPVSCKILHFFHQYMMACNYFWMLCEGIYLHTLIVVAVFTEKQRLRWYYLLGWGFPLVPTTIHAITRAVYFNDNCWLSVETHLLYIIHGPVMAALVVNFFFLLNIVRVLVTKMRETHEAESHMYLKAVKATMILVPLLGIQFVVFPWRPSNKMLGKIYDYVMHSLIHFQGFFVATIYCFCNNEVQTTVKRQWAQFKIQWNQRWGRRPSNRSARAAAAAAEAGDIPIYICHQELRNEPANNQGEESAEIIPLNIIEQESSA

B1: N^ε1-[2-[2-[2-[[(4S)-4-carboxy-4-(19-carboxynonadecanoylamino)butanoyl]amino]ethoxy]ethoxy]acetyl]-[Arg14,Arg17,Pro21,Pro27,Pro31]-h-amylin (peptide)
peptide: K([AEEA-γGlu-C20 diacid])CNTATCATQRLARFLRHSSPNFGAIPSSTPVGSNTY-NH2
modifications: disulfide 2-7; N-terminus assumed
SMILES: CC[C@H](C)[C@H](NC(=O)[C@H](C)NC(=O)CNC(=O)[C@H](Cc1ccccc1)NC(=O)[C@H](CC(N)=O)NC(=O)[C@@H]1CCCN1C(=O)[C@H](CO)NC(=O)[C@H](CO)NC(=O)[C@H](Cc1c[nH]cn1)NC(=O)[C@H](CCCNC(=N)N)NC(=O)[C@H](CC(C)C)NC(=O)[C@H](Cc1ccccc1)NC(=O)[C@H](CCCNC(=N)N)NC(=O)[C@H](C)NC(=O)[C@H](CC(C)C)NC(=O)[C@H](CCCNC(=N)N)NC(=O)[C@H](CCC(N)=O)NC(=O)[C@@H](NC(=O)[C@H](C)NC(=O)[C@@H]1CSSC[C@H](NC(=O)[C@@H](N)CCCCNC(=O)COCCOCCNC(=O)CC[C@H](NC(=O)CCCCCCCCCCCCCCCCCCC(=O)O)C(=O)O)C(=O)N[C@@H](CC(N)=O)C(=O)N[C@@H]([C@@H](C)O)C(=O)N[C@@H](C)C(=O)N[C@@H]([C@@H](C)O)C(=O)N1)[C@@H](C)O)C(=O)N1CCC[C@H]1C(=O)N[C@@H](CO)C(=O)N[C@@H](CO)C(=O)N[C@H](C(=O)N1CCC[C@H]1C(=O)N[C@H](C(=O)NCC(=O)N[C@@H](CO)C(=O)N[C@@H](CC(N)=O)C(=O)N[C@H](C(=O)N[C@@H](Cc1ccc(O)cc1)C(N)=O)[C@@H](C)O)C(C)C)[C@@H](C)O
notes: analogue of human amylin; also called compound 64
B2: N^ε1-[2-[2-[2-[[(4S)-4-carboxy-4-(19-carboxynonadecanoylamino)butanoyl]amino]ethoxy]ethoxy]acetyl]-[Arg17,Pro21,Pro27,Glu35]-h-amylin (peptide)
peptide: K([AEEA-γGlu-C20 diacid])CNTATCATQRLANFLRHSSPNFGAIPSSTNVGSETY-NH2
modifications: disulfide 2-7; N-terminus assumed
SMILES: CC[C@H](C)[C@H](NC(=O)[C@H](C)NC(=O)CNC(=O)[C@H](Cc1ccccc1)NC(=O)[C@H](CC(N)=O)NC(=O)[C@@H]1CCCN1C(=O)[C@H](CO)NC(=O)[C@H](CO)NC(=O)[C@H](Cc1c[nH]cn1)NC(=O)[C@H](CCCNC(=N)N)NC(=O)[C@H](CC(C)C)NC(=O)[C@H](Cc1ccccc1)NC(=O)[C@H](CC(N)=O)NC(=O)[C@H](C)NC(=O)[C@H](CC(C)C)NC(=O)[C@H](CCCNC(=N)N)NC(=O)[C@H](CCC(N)=O)NC(=O)[C@@H](NC(=O)[C@H](C)NC(=O)[C@@H]1CSSC[C@H](NC(=O)[C@@H](N)CCCCNC(=O)COCCOCCNC(=O)CC[C@H](NC(=O)CCCCCCCCCCCCCCCCCCC(=O)O)C(=O)O)C(=O)N[C@@H](CC(N)=O)C(=O)N[C@@H]([C@@H](C)O)C(=O)N[C@@H](C)C(=O)N[C@@H]([C@@H](C)O)C(=O)N1)[C@@H](C)O)C(=O)N1CCC[C@H]1C(=O)N[C@@H](CO)C(=O)N[C@@H](CO)C(=O)N[C@H](C(=O)N[C@@H](CC(N)=O)C(=O)N[C@H](C(=O)NCC(=O)N[C@@H](CO)C(=O)N[C@@H](CCC(=O)O)C(=O)N[C@H](C(=O)N[C@@H](Cc1ccc(O)cc1)C(N)=O)[C@@H](C)O)C(C)C)[C@@H](C)O
notes: analogue of human amylin; also called compound 26
B3: N^ε1-[2-[2-[2-[[(4S)-4-carboxy-4-(19-carboxynonadecanoylamino)butanoyl]amino]ethoxy]ethoxy]acetyl]-[Arg17,Pro21,Pro27,Pro28,Pro34]-h-amylin (peptide)
peptide: K([AEEA-γGlu-C20 diacid])CNTATCATQRLANFLRHSSPNFGAIPPSTNVGPNTY-NH2
modifications: disulfide 2-7; N-terminus assumed
SMILES: CC[C@H](C)[C@H](NC(=O)[C@H](C)NC(=O)CNC(=O)[C@H](Cc1ccccc1)NC(=O)[C@H](CC(N)=O)NC(=O)[C@@H]1CCCN1C(=O)[C@H](CO)NC(=O)[C@H](CO)NC(=O)[C@H](Cc1c[nH]cn1)NC(=O)[C@H](CCCNC(=N)N)NC(=O)[C@H](CC(C)C)NC(=O)[C@H](Cc1ccccc1)NC(=O)[C@H](CC(N)=O)NC(=O)[C@H](C)NC(=O)[C@H](CC(C)C)NC(=O)[C@H](CCCNC(=N)N)NC(=O)[C@H](CCC(N)=O)NC(=O)[C@@H](NC(=O)[C@H](C)NC(=O)[C@@H]1CSSC[C@H](NC(=O)[C@@H](N)CCCCNC(=O)COCCOCCNC(=O)CC[C@H](NC(=O)CCCCCCCCCCCCCCCCCCC(=O)O)C(=O)O)C(=O)N[C@@H](CC(N)=O)C(=O)N[C@@H]([C@@H](C)O)C(=O)N[C@@H](C)C(=O)N[C@@H]([C@@H](C)O)C(=O)N1)[C@@H](C)O)C(=O)N1CCC[C@H]1C(=O)N1CCC[C@H]1C(=O)N[C@@H](CO)C(=O)N[C@H](C(=O)N[C@@H](CC(N)=O)C(=O)N[C@H](C(=O)NCC(=O)N1CCC[C@H]1C(=O)N[C@@H](CC(N)=O)C(=O)N[C@H](C(=O)N[C@@H](Cc1ccc(O)cc1)C(N)=O)[C@@H](C)O)C(C)C)[C@@H](C)O
notes: analogue of human amylin; also called compound 55
B4: N^ε1-[2-[2-[2-[[(4S)-4-carboxy-4-(19-carboxynonadecanoylamino)butanoyl]amino]ethoxy]ethoxy]acetyl]-[Arg17,Pro21,Pro27,Pro31,His35]-h-amylin (peptide)
peptide: K([AEEA-γGlu-C20 diacid])CNTATCATQRLANFLRHSSPNFGAIPSSTPVGSHTY-NH2
modifications: disulfide 2-7; N-terminus assumed
SMILES: CC[C@H](C)[C@H](NC(=O)[C@H](C)NC(=O)CNC(=O)[C@H](Cc1ccccc1)NC(=O)[C@H](CC(N)=O)NC(=O)[C@@H]1CCCN1C(=O)[C@H](CO)NC(=O)[C@H](CO)NC(=O)[C@H](Cc1c[nH]cn1)NC(=O)[C@H](CCCNC(=N)N)NC(=O)[C@H](CC(C)C)NC(=O)[C@H](Cc1ccccc1)NC(=O)[C@H](CC(N)=O)NC(=O)[C@H](C)NC(=O)[C@H](CC(C)C)NC(=O)[C@H](CCCNC(=N)N)NC(=O)[C@H](CCC(N)=O)NC(=O)[C@@H](NC(=O)[C@H](C)NC(=O)[C@@H]1CSSC[C@H](NC(=O)[C@@H](N)CCCCNC(=O)COCCOCCNC(=O)CC[C@H](NC(=O)CCCCCCCCCCCCCCCCCCC(=O)O)C(=O)O)C(=O)N[C@@H](CC(N)=O)C(=O)N[C@@H]([C@@H](C)O)C(=O)N[C@@H](C)C(=O)N[C@@H]([C@@H](C)O)C(=O)N1)[C@@H](C)O)C(=O)N1CCC[C@H]1C(=O)N[C@@H](CO)C(=O)N[C@@H](CO)C(=O)N[C@H](C(=O)N1CCC[C@H]1C(=O)N[C@H](C(=O)NCC(=O)N[C@@H](CO)C(=O)N[C@@H](Cc1c[nH]cn1)C(=O)N[C@H](C(=O)N[C@@H](Cc1ccc(O)cc1)C(N)=O)[C@@H](C)O)C(C)C)[C@@H](C)O
notes: analogue of human amylin; also called compound 57
B5: N^ε1-[2-[2-[2-[[(4S)-4-carboxy-4-(19-carboxynonadecanoylamino)butanoyl]amino]ethoxy]ethoxy]acetyl]-[Arg17,Pro21,Pro27,Pro31]-h-amylin (peptide)
peptide: K([AEEA-γGlu-C20 diacid])CNTATCATQRLANFLRHSSPNFGAIPSSTPVGSNTY-NH2
modifications: disulfide 2-7; N-terminus assumed
SMILES: CC[C@H](C)[C@H](NC(=O)[C@H](C)NC(=O)CNC(=O)[C@H](Cc1ccccc1)NC(=O)[C@H](CC(N)=O)NC(=O)[C@@H]1CCCN1C(=O)[C@H](CO)NC(=O)[C@H](CO)NC(=O)[C@H](Cc1c[nH]cn1)NC(=O)[C@H](CCCNC(=N)N)NC(=O)[C@H](CC(C)C)NC(=O)[C@H](Cc1ccccc1)NC(=O)[C@H](CC(N)=O)NC(=O)[C@H](C)NC(=O)[C@H](CC(C)C)NC(=O)[C@H](CCCNC(=N)N)NC(=O)[C@H](CCC(N)=O)NC(=O)[C@@H](NC(=O)[C@H](C)NC(=O)[C@@H]1CSSC[C@H](NC(=O)[C@@H](N)CCCCNC(=O)COCCOCCNC(=O)CC[C@H](NC(=O)CCCCCCCCCCCCCCCCCCC(=O)O)C(=O)O)C(=O)N[C@@H](CC(N)=O)C(=O)N[C@@H]([C@@H](C)O)C(=O)N[C@@H](C)C(=O)N[C@@H]([C@@H](C)O)C(=O)N1)[C@@H](C)O)C(=O)N1CCC[C@H]1C(=O)N[C@@H](CO)C(=O)N[C@@H](CO)C(=O)N[C@H](C(=O)N1CCC[C@H]1C(=O)N[C@H](C(=O)NCC(=O)N[C@@H](CO)C(=O)N[C@@H](CC(N)=O)C(=O)N[C@H](C(=O)N[C@@H](Cc1ccc(O)cc1)C(N)=O)[C@@H](C)O)C(C)C)[C@@H](C)O
notes: analogue of human amylin; also called compound 49

Target: T1, human calcitonin receptor
Assay: cell-based or functional assay

Binder	hCTR funct. EC50
B1	22.9 nM
B2	6.34 nM
B3	0.731 nM
B4	3.12 nM
B5	2.39 nM
